This note sets out measurements from article PMC6746776, “TA*p63 and GTAp63 achieve tighter transcriptional regulation in quality control by converting an inhibitory element into an additional transactivation domain” (Cell Death & Disease, 2019).

Data set [1] deals with the molecule itself. Put plainly: SEC; in vitro translated protein in rabbit reticulocyte lysate on Superose 6 3.2/300, 50 mM sodium phosphate pH 7.8, 100 mM NaCl, 4 °C; fractions analysed by western blot. On the technique in general: SEC sorts molecules by how far they enter the pores of the column.
The next data set addresses TAp63α FWL. Described as above.
Data set [2] concerns the molecule itself. Put plainly: native gel or EMSA; Blue-Native PAGE (3-12%) of Sum159 lysate, endogenous protein, before doxorubicin. For orientation: A gel shift assay detects complexes by their altered migration in electrophoresis.
Data set [3] concerns the molecule itself. Put plainly: native gel or EMSA; Blue-Native PAGE (3-12%) of Sum159 lysate, endogenous protein, cells treated with 10 µM doxorubicin for different periods of time.
Data set [4] addresses T1, TA*-GTA* peptide (1*-39*) (fluorescein on the N-terminus).
T1 chain: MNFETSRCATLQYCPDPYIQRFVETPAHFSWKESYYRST
Put plainly: fluorescence polarisation; fluorescence anisotropy; 100 nM N-terminally fluorescein-labelled peptide, increasing concentration of Taz2; 22 °C; two site specific binding fit. To be noted: both partners purified. Background: Fluorescence polarisation rises when a labelled molecule tumbles more slowly, as on binding a larger partner.

Data set [5] addresses GTA-GTA* peptide (1′-37′) (not stated (isoform of humans and great apes)). The description is as above.

Numbering of substitutions follows the chain as printed.

B1: TA*p63α FWL (natural protein, UniProt Q9H3D4-1 1-680, looked up)
chain: MNFETSRCATLQYCPDPYIQRFVETPAHFSWKESYYRSTMSQSTQTNEFLSPEVAQHIADFAEQPICSVQPIDLNFVDEPSEDGATNKIEISMDCIRMQDSDLSDPMWPQYTNLGLLNSMDQQIQNGSSSTSPYNTDHAQNSVTAPSPYAQPSSTFDALSPSPAIPSNTDYPGPHSFDVSFQQSSTAKSATWTYSTELKKLYCQIAKTCPIQIKVMTPPPQGAVIRAMPVYKKAEHVTEVVKRCPNHELSREFNEGQIAPPSHLIRVEGNSHAQYVEDPITGRQSVLVPYEPPQVGTEFTTVLYNFMCNSSCVGGMNRRPILIIVTLETRDGQVLGRRCFEARICACPGRDRKADEDSIRKQQVSDSTKNGDGTKRPFRQNTHGIQMTSIKKRRSPDDELLYLPVRGRETYEMLLKIKESLELMQYLPQHTIETYRQQQQQQHQHLLQKQTSIQSPSSYGNSSPPLNKMNSMNKLPSVSQLINPQQRNALTPTTIPDGMGANIPMMGTHMPMAGDMNGLSPTQALPPPLSMPSTSHCTPPPPYPTDCSIVSFLARLGCSSCLDYFTTQGLTTIYQIEHYSMDDLASLKIPEQFRHAIWKGILDHRQLHEFSSPSHLLRTPSSASTVSVGSSETRGERVIDAVRFTLRQTISFPPRDEWNDFNFDMDARRNKQQRIKEEGE
notes: TA*p63α: another translation start site adds 39 aa N-terminally to TAp63α; also called FWL mutant of TA*p63α; source: in vitro translated (rabbit reticulocyte lysate); not shown: myc, N-terminal, kept
The stoichiometry N is a count of units in the complex or per binding partner. Regarding B1, the results for the “stoichiometry N” value (in data set [1]; with TAp63α FWL) were 2 and 4, respectively.

B2: TA*p63α (natural protein, human (endogenous in Sum159), UniProt Q9H3D4-1 1-680, looked up)
chain: B1 chain with A55F, A59W, A62L
notes: also called endogenous TA*p63α of Sum159 cells; source: endogenous, Sum159 lysate
Take B2: the “stoichiometry N” value in data set [2] worked out at 2; in data set [3] it was 4.

B3: p300 Taz2 domain (domain or fragment)
chain: ATQSPGDSRRLSIQRCIQSLVHACQCRNANCSLPSCQKMKRVVQHTKGCKRKTNGGCPICKQLIALCCYHAKHCQENKCPVPFCLNIKQK
As usually defined, the Kd is the constant that tells how readily two partners part at equilibrium. Low values mean tighter binding, high ones weaker binding. On to B3, for which the dissociation constant (Kd) was 13.2 ± 0.93 µM in data set [4] and 4.79 µM in data set [5].
